Assay results published in IntAct's records for PubMed 33762578.

B1: E3 ubiquitin-protein ligase NEDD4 (Homo sapiens), P46934-3 (parent)
chain: MAQSLRLHFAARRSNTYPLSETSGDDLDSHVHMCFKRPTRISTSNVVQMKLTPRQTALAPLIKENVQSQERSSVPSSENVNKKSSCLQISLQPTRYSGYLQSSNVLADSDDASFTCILKDGIYSSAVVDNELNAVNDGHLVSSPAICSGSLSNFSTSDNGSYSSNGSDFGSCASITSGGSYTNSVISDSSSYTFPPSDDTFLGGNLPSDSTSNRSVPNRNTTPCEIFSRSTSTDPFVQDDLEHGLEIMKLPVSRNTKIPLKRYSSLVIFPRSPSTTRPTSPTSLCTLLSKGSYQTSHQFIISPSEIAHNEDGTSAKGFLSTAVNGLRLSKTICTPGEVRDIRPLHRKGSLQKKIVLSNNTPRQTVCEKSSEGYSCVSVHFTQRKAATLDCETTNGDCKPEMSEIKLNSDSEYIKLMHRTSACLPSSQNVDCQININGELERPHSQMNKNHGILRRSISLGGAYPNISCLSSLKHNCSKGGPSQLLIKFASGNEGKVDNLSRDSNRDCTNELSNSCKPGWVVLDQPDAACHLQQQQEPSPLPPGWEERQDILGRTYYVNHESRRTQWKRPTPQDNLTDAENGNIQLQAQRAFTTRRQISEETESVDNRESSENWEIIREDEATMYSNQAFPSPPPSSNLDVPTHLAEELNARLTIFGNSAVSQPASSSNHSSRRGSLQAYTFEEQPTLPVLLPTSSGLPPGWEEKQDERGRSYYVDHNSRTTTWTKPTVQATVETSQLTSSQSSAGPQSQASTSDSGQQVTQPSEIEQGFLPKGWEVRHAPNGRPFFIDHNTKTTTWEDPRLKIPAHLRGKTSLDTSNDLGPLPPGWEERTHTDGRIFYINHNIKRTQWEDPRLENVAITGPAVPYSRDYKRKYEFFRRKLKKQNDIPNKFEMKLRRATVLEDSYRRIMGVKRADFLKARLWIEFDGEKGLDYGGVAREWFFLISKEMFNPYYGLFEYSATDNYTLQINPNSGLCNEDHLSYFKFIGRVAGMAVYHGKLLDGFFIRPFYKMMLHKPITLHDMESVDSEYYNSLRWILENDPTELDLRFIIDEELFGQTHQHELKNGGSEIVVTNKNKKEYIYLVIQWRFVNRIQKQMAAFKEGFFELIPQDLIKIFDENELELLMCGLGDVDVNDWREHTKYKNGYSANHQVIQWFWKAVLMMDSEKRIRLLQFVTGTSRVPMNGFAELYGSNGPQSFTVEQWGTPEKLPRAHTCFNRLDLPPYESFEELWDKLQMAIENTQGFDGVD

Variants of: B1
Settings: with spike_sars2 S

Row | Variant | effect of a mutation on the interaction
1 | I843R | increasing interaction strength
2 | R877Q | increasing interaction strength
